In patent US20070265206A1 (PALATIN TECHNOLOGIES, published 2007):
Bridge positions count the residues as written; N and C are the ends.

Assays:
[1] = target: T1, human natriuretic peptide receptor A (NPRA) (human, UniProt P16066 33-1061); experiment: cell-based or functional assay
T1 sequence (looked up): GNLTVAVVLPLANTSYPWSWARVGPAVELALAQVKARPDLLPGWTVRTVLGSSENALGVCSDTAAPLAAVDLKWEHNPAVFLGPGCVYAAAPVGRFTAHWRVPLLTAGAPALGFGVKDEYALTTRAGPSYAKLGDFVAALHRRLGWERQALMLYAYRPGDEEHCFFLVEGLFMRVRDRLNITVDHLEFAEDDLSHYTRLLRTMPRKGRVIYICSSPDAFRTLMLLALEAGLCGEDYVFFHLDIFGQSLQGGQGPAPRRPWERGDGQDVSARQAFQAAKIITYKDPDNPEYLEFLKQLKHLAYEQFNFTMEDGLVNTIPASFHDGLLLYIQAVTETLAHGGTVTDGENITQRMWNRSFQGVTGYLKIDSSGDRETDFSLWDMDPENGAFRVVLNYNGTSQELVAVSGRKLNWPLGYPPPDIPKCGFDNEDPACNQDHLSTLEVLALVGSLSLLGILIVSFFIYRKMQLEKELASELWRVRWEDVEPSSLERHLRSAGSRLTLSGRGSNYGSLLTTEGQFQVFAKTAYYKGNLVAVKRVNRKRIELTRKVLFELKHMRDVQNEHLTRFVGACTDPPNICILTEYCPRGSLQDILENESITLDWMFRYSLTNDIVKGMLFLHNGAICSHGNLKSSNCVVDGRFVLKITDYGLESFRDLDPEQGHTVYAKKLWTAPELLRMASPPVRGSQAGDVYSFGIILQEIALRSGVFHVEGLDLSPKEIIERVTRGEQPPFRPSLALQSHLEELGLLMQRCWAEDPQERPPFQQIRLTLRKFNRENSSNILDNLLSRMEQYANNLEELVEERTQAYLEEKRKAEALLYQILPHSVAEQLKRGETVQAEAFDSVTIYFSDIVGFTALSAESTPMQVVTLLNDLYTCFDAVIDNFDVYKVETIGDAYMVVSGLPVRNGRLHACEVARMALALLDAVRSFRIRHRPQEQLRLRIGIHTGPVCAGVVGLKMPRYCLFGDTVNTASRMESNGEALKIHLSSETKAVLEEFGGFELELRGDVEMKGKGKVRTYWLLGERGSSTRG

[2] = target: T1, human natriuretic peptide receptor A …; experiment: competitive inhibition of [125I]-ANP binding to HEK-hNPRA membrane homogenates
Method: Competitive binding assay. A competitive inhibition binding assay was performed using crude membrane homogenates prepared from HEK-hNPRA cells. To prepare membrane homogenates, cells were rinsed with phosphate-buffered saline and incubated for 15 minutes at 4° C. in hypotonic lysis buffer (10 mM Tris, pH 7.4+5 mM EDTA). Cells were transferred from plates to polypropylene tubes and homogenized. Homogenates were centrifuged at 25,000×g for 20 minutes. Pellets were resuspended in buffer consisting of 50 mM Tris (pH 7.4) and 1 mM EDTA, homogenized and centrifuged at 25,000×g for 20 minutes. […] On the day of an assay, homogenates were thawed and homogenized. […] Assays were stopped by addition of cold wash buffer (phosphate-buffered saline) followed by filtration using a vacuum manifold. Bound radioactivity was determined using a gamma counter. […] Data were analyzed using GraphPad Prism® curve-fitting software.

EC50 (accumulation of intracellular cGMP) [1]: 3.3 nM
Ki [2]: 0.6 nM
B1: mini-ANP, H-Met-cyclo(Cys-His-Phe-Gly-Gly-Arg-Met-Asp-Arg-Ile-Ser-Cys)-Tyr-Arg-NH2 (peptide)
peptide: H-MCHFGGRMDRISCYR-NH2
modifications: disulfide 2-13
SMILES: CC[C@H](C)[C@@H]1NC(=O)[C@H](CCCNC(=N)N)NC(=O)[C@H](CC(=O)O)NC(=O)[C@H](CCSC)NC(=O)[C@H](CCCNC(=N)N)NC(=O)CNC(=O)CNC(=O)[C@H](Cc2ccccc2)NC(=O)[C@H](Cc2c[nH]cn2)NC(=O)[C@@H](NC(=O)[C@@H](N)CCSC)CSSC[C@@H](C(=O)N[C@@H](Cc2ccc(O)cc2)C(=O)N[C@@H](CCCNC(=N)N)C(N)=O)NC(=O)[C@H](CO)NC1=O
notes: also called 15-mer disulfide cyclic peptide
